Here are results for one molecule from patent publication US20110263454A1, “Methods of Identifying Functional Characteristics of Promoters, Transcription Modifying Proteins and Transcription Modulating Agents” (Salk Institute for Biological Studies, priority 2008, published 2011).

Assay [1] deals with mCAR promoter. Nature of the assay: NHR-promoter luciferase screen, mCAR promoter. The assay is classed as cell-based, mouse. In short, it runs like this:
(§1)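 CV-1 cells were co-transfected with 50 ng NHR (homodimer or NHR/RXR heterodimer), 100 ng promoter-luciferase construct and 50 ng LacZ. Luciferase was normalized to LacZ and to a no-NHR/no-ligand control.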

The test system of assay [2] is mUCP2 promoter. Put plainly: NHR-promoter luciferase screen, mUCP2 promoter. The class given is cell-based, mouse. In short, it runs like this: as §1
The subject of assay [3] is mLeptin promoter. Nature of the assay: NHR-promoter luciferase screen, mLeptin promoter. The assay is classed as cell-based, mouse. In short, it runs like this:
as §1

Assay [4] deals with mPOMC promoter. Put plainly: NHR-promoter luciferase screen, mPOMC promoter. The assay is classed as cell-based, mouse. In short, it runs like this: as §1
In assay [5] the test system is hIRF7 promoter. Nature of the assay: NHR-promoter luciferase screen, hIRF7 promoter. The assay is classed as cell-based, human. In short, it runs like this:
as §1

Assay [6] relates to hCYP3A4 promoter. Put plainly: NHR-promoter luciferase screen, hCYP3A4 promoter. The class given is cell-based, human. In outline: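 Luciferase reporter read-out after co-expression in CV-1 cells of V5H6-tagged receptor (alone or with RXR), the promoter construct and LacZ. Values are luciferase/LacZ relative to a control lacking NHR or ligand; orphan receptors tested ligand-free.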

[7] abbreviates: mCAR promoter, HR/ligand component.
Setting [8] is: Table 6d, luciferase activity relative to control (control = 1.00).
[9] abbreviates: transcription factor +/- ligand, control = 1.00.
[10] abbreviates: CYP3A4 promoter, HR/ligand component.

B1: SHP: Small Heterodimer Partner (NR0B2), cDNA driver (protein, UniProt Q15466 1-257, looked up)
Nuclear receptor subfamily 0 …: MSTSQPGACPCQGAASRPAILYALLSSSLKAVPRPRSRCLCRQHRPVQLCAPHRTCREALDVLAKTVAFLRNLPSFWQLPPQDQRRLLQGCWGPLFLLGLAQDAVTFEVAEAPVPSILKKILLEEPSSSGGSGQLPDRPQPSLAAVQWLQCCLESFWSLELSPKEYACLKGTILFNPDVPGLQAASHIGHLQQEAHWVLCEVLEPWCPAAQGRLTRVLLTASTLKSIPTSLLGDLFFRPIIGDVDIAGLLGDMLLLR
With B1, the “luciferase activity normalized to lacZ activity and to a control, mCAR” value in assay [1] (mCAR promoter-luciferase, CV-1 cells, NHR +/- ligand, control = 1.00) is 0.95. The “Luc. act., normalized to lacZ” value turned out to be 36.17 in assay [1] (setting [7]); 164.1 in assay [2] (mUCP2 promoter reporter, co-transfected HR, with or without its ligand); 2.7 in assay [3] (Table 7, mLeptin); 65.6 in assay [4] (mPOMC promoter, HR component with or without ligand); 29.1 in assay [5] (IRF7 promoter reporter, hormone receptor (HR) without or with its ligand); 4.6 in assay [6] (setting [10]). Besides, the “Normalized Luc. act., normalized to control” value in assay [1] (setting [7]) is listed as 0.9; in assay [2] (mUCP2 promoter reporter, co-transfected HR, with or without its ligand, relative to control), 1.5; in assay [3] (Table 7, mLeptin) it was 0.9; in assay [4] (mPOMC promoter, HR component with or without ligand, relative to control) it was 1.0; in assay [5] (IRF7 promoter reporter, HR without or with its ligand, relative to control) it was 1.1; in assay [6] (setting [10]) it was 1.0. Also, the “luciferase activity normalized to lacZ activity and to a control, mUCP2” value in assay [2] (mUCP2 promoter-luciferase, CV-1 cells, NHR +/- ligand, control = 1.00) is reported as 1.49. Moreover, the “Results of assays of transcription factor (+/- ligand) with mLeptin” value in assay [3] (setting [8]) stood at 0.91. In addition, the “Results of assays of transcription factor (+/- ligand) with mPOMC” value in assay [4] (setting [8]) is 0.95. In addition, in assay [5] (setting [9]), the “hIRF7 promoter reporter activity” value was 1.10. Further, the “hCYP3A4 promoter reporter activity” value in assay [6] (setting [9]) is 1.04.
